The results in this text go back to article PMC8965725.

This test has as its target NRP-1 expressed on GL261 cells (mouse (endogenous in GL261)) (UniProt P97333).

“RGE fusion protein nanoparticles (RGE peptide-linker-HFn) (designed binder)”: the cellular FITC fluorescence of GL261 cells incubated with FITC-labeled NPs, flow cytometry, normalized to cells without treatment (cellular internalization) stood at 42%.
